These results are taken from patent US8790905B2, “Fructosyl peptide oxidase” (Kyowa Medex Co., Ltd, priority 2008, dated 2014).

What all share (assay type): biochemical, Emericella nidulans KY125
Substrate in data set [1]: CC(C)[C@H](NCC1(O)OC[C@@H](O)[C@@H](O)[C@@H]1O)C(=O)N[C@@H](Cc1c[nH]cn1)C(=O)O
As to the kind of experiment: Km values of the fructosyl peptide oxidase FPOX-9 towards each type of substrate. The following applies: other: Tris buffer (pH 7.5), 37° C. As to the method: (§1) Substrate specificity of the novel FPOX-9 obtained in Example 2 to glycated peptides and/or glycated amino acids were measured using the following Reagent 1 to Reagent 3.
(§2) Herein, the FPOX-9 solution used was the one prepared in Example 3.
(§3) As substrates, glycated peptide α-FVH as well as glycated amino acids ε-FK and α-FV were used.
(§4) α-FVH solutions and α-FV solutions were prepared using Tris buffer to obtain each of the following concentrations in Reagent 3: 0, 0.05, 0.1, 0.5, 1, 2, 5, and 10 mmol/L. ε-FK solutions were prepared using Tris buffer to obtain each of the following concentrations in Reagent 3: 0, 1, 2, 5, 10, 20, 40, 50, 80, and 100 mmol/L.
(§5) 170 μL of Reagent 2 was added to 10 μL of Reagent 1, and after the reaction at 37° C. for five minutes, 20 μL of Reagent 3 was added, and the reaction was further continued at 37° C. for five minutes, a total of ten minutes. The absorbance at 546 nm (main wavelength)/800 nm (sub-wavelength) for 0 mmol/L at 5.4 minutes after starting the reaction was defined as A0′ (Abs), and the absorbance at 546 nm (main wavelength)/800 nm (sub-wavelength) for each substrate concentration at 5.4 minutes after starting the reaction was defined as A0^x (Abs), and ΔA0 was calculated according to Equation (I). (Mathematical Expression 1) ΔA0=A0^x−A0′(Abs) (I)
(§6) The absorbance at 546 nm (main wavelength)/800 nm (sub-wavelength) for 0 mmol/L at 6.6 minutes after starting the reaction was defined as As′ (Abs), and the absorbance at 546 nm (main wavelength)/800 nm (sub-wavelength) for each substrate concentration at 6.6 minutes after starting the reaction was defined as As^x (Abs), and ΔAs was calculated according to Equation (II). (Mathematical Expression 2) ΔAs=As^x−As′(Abs) (II)
(§7) The enzyme activity (U/mL) for each substrate concentration was calculated by substituting the obtained ΔA0 and ΔAs total amount of reaction solution (0.2 mL), molar extinction coefficient of TOOS (39,200), reaction time (1.2 minutes), and the light path length of the reaction cuvette (0.5 cm) into Equation (III). […]

Substrate in data set [2]: N[C@@H](CCCCNCC1(O)OC[C@@H](O)[C@@H](O)[C@@H]1O)C(=O)O
The data set is described as above. Conditions: other: Tris buffer (pH 7.5), 37° C. As to the method:
as §1, §2, §3, §4, §5, §6, §7

Substrate in data set [3]: CC(C)[C@H](NCC1(O)OC[C@@H](O)[C@@H](O)[C@@H]1O)C(=O)O
Described as above. The following applies: other: Tris buffer (pH 7.5), 37° C. On the procedure:
as §1, §2, §3, §4, §5, §6, §7

Substrate in data set [4]: CC(C)[C@H](NCC1(O)OC[C@@H](O)[C@@H](O)[C@@H]1O)C(=O)N[C@@H](Cc1c[nH]cn1)C(=O)O
As to the kind of experiment: Km values of the fructosyl peptide oxidase FPOX-15 towards each type of substrate. Conditions: 37° C. As to the method: (§8) The substrate specificity of FPOX-15 obtained in Example 2 to glycated peptides and/or glycated amino acids was measured using the following Reagent 1 to Reagent 3.
(§9) Herein, for the FPOX-15 solution, a solution produced by four-fold dilution of the solution obtained in Example 3 was used.
as §3
(§10) α-FVH solutions and α-FV solutions were prepared using distilled water to obtain the following concentrations in Reagent 3: 0, 2, 2.5, 3, and 3.66 mmol/L. ε-FK solution was prepared using distilled water to obtain the following concentrations in Reagent 3: 0, 20, 30, 40, and 50 mmol/L.
as §5, with “150” for “170”, “5” for “10”, “wavelength)/700” for “wavelength)/800”
(§11) The absorbance at 546 nm (main wavelength)/700 nm (sub-wavelength) for 0 mmol/L at 6.6 minutes after starting the reaction was defined as As′ (Abs), and the absorbance at 546 nm (main wavelength)/700 nm (sub-wavelength) for each substrate concentration at 6.6 minutes after starting the reaction was defined as As^x (Abs), and ΔAs was calculated according to Equation (II). (Mathematical Expression 2) ΔAs=As^x−As′(Abs) (II)
(§12) The enzyme activity (U/mL) for each substrate concentration was calculated by substituting the obtained ΔA0 and ΔAs, total amount of reaction solution (0.2 mL), molar extinction coefficient of EMSE (33,800), reaction time (1.2 minutes), and the light path length of the reaction cuvette (0.5 cm) into Equation (III). (Mathematical Expression 3) Enzyme activity(U/mL)={(ΔAs−ΔA0)×total amount of reaction solution(mL)}/{molar extinction coefficient ε/1000×amount of enzyme solution(mL)×0.5×reaction time(min)×light path length(cm)} (III)
(§13) For each of the substrates α-FVH, ε-FK, and α-FV, a plot was produced with substrate concentration (mmol/L) on the horizontal axis and the corresponding enzyme activity (U/mL) on the vertical axis, and the substrate concentration corresponding to ½ of the maximum enzyme activity was calculated as the Km value (Michaelis constant).

Substrate in data set [5]: N[C@@H](CCCCNCC1(O)OC[C@@H](O)[C@@H](O)[C@@H]1O)C(=O)O
Described as above. The following applies: 37° C. As to the method:
as §8, §9, §3, §10
as §5, with “150” for “170”, “5” for “10”, “wavelength)/700” for “wavelength)/800”
as §11, §12, §13

Substrate in data set [6]: CC(C)[C@H](NCC1(O)OC[C@@H](O)[C@@H](O)[C@@H]1O)C(=O)O
Described as above. The following applies: 37° C. On the procedure: as §8, §9, §3, §10
as §5, with “150” for “170”, “5” for “10”, “wavelength)/700” for “wavelength)/800”
as §11, §12, §13

Where [7] appears, read: other: pH 6.0, sodium dihydrogen phosphate, pH 6.0.
[8] abbreviates: other: pH 7.0, sodium dihydrogen phosphate, pH 7.0.
[9] abbreviates: other: pH 8.0, sodium dihydrogen phosphate, pH 8.0.

B1: Emericella nidulans KY125 fructosyl peptide oxidase variant FPOX-9 (Ser71Tyr, Ile94Met, Glu104Lys, Lys109Arg, Phe269Ile), SEQ ID NO: 1 (Aspergillus nidulans; … (protein)
chain: MAPRANTKIIVVGGGGTMGSSTALHLLRAGYTPSNITVLDTYPIPSAQSAGYDLNKIMSIRLRNKPDLQLYLEALDMWKNDPLFKPFFHNVGQMDVSSTEEGIKGLRMRYQSLLDAGIGLEKTNFLLESEDEILAKAPHFTREQIKGWKGLFCGDGGWLAAAKAINAIGQFLKEQGVKFGFGGAGTFKKPLFADADEKTCIGVETVDGTKYYADKVVLAAGAWSSTLVDLEEQCVSKAWVFAHIQLTPAEAAAYKNTPVIYDGDYGFFIEPNENGIIKVCDEFPGFTHFKMHQPYGSPVPKPISVPRSHAKHPTDTYPHASEVTIKKAINRFLPRFNDKELFNRAMCWCTDTADANLLVCEHPRWKGFYLATGDSGHSFKLLPNIGKHVVELLEGRLESVFKDAWRWRPGSGDALKSRRAAPAKDLADMPGWRNEAKM
Take B1: the Km in data set [1] turned out to be 500 µM; in data set [2] it was 4000 µM; in data set [3], 600 µM.

B2: Emericella nidulans KY125 fructosyl peptide oxidase variant FPOX-15 (FPOX-9 with Met58Phe, Ser59Gly, Gly105Lys, Gly183Glu, Asn272Asp, Pro302Leu), SEQ ID NO: 3 … (protein)
chain: MAPRANTKIIVVGGGGTMGSSTALHLLRAGYTPSNITVLDTYPIPSAQSAGYDLNKIFGIRLRNKPDLQLYLEALDMWKNDPLFKPFFHNVGQMDVSSTEEGIKKLRMRYQSLLDAGIGLEKTNFLLESEDEILAKAPHFTREQIKGWKGLFCGDGGWLAAAKAINAIGQFLKEQGVKFGFGEAGTFKKPLFADADEKTCIGVETVDGTKYYADKVVLAAGAWSSTLVDLEEQCVSKAWVFAHIQLTPAEAAAYKNTPVIYDGDYGFFIEPDENGIIKVCDEFPGFTHFKMHQPYGSPVPKLISVPRSHAKHPTDTYPHASEVTIKKAINRFLPRFNDKELFNRAMCWCTDTADANLLVCEHPRWKGFYLATGDSGHSFKLLPNIGKHVVELLEGRLESVFKDAWRWRPGSGDALKSRRAAPAKDLADMPGWRNEAKM
B2: the Km in data set [4] (setting [7]) was 400 µM; in data set [4] (setting [8]) it was 500 µM; in data set [4] (setting [9]), 800 µM; in data set [5] (setting [7]), 23200 µM; in data set [5] (setting [8]), 19200 µM; in data set [5] (setting [9]), 9600 µM. The figures for the Km in data set [6] (setting [7]), in data set [6] (setting [8]) and in data set [6] (setting [9]) were 200 µM, 300 µM and 300 µM, respectively.
